Data as given in patent US8455205B2, “Metalloproteinase 9 binding proteins” (Dyax Corp., priority 2008, dated 2013).
Entries after “also recorded” stand apart in the source; their conditions may differ.

Assays:
[1] = molecular target: T1, MMP-9 (Homo sapiens, UniProt P14780); assay: Affinity ranking of Fabs by BIACORE Flexchip (SPR); type: binding
Source text: Surface Plasmon Resonance (SPR). The interaction of binding protein and a target can be analyzed using SPR. SPR or Biomolecular Interaction Analysis (BIA) detects biospecific interactions in real time, without labeling any of the interactants. Changes in the mass at the binding surface (indicative of a binding event) of the BIA chip result in alterations of the refractive index of light near the surface (the optical phenomenon of surface plasmon resonance (SPR)). The changes in the refractivity generate a detectable signal, which are measured as an indication of real-time reactions between biological molecules. Methods for using SPR are described, for example, in U.S. Pat. No. 5,641,640; Raether, 1988, Surface Plasmons Springer Verlag; Sjolander and Urbaniczky, 1991, Anal. Chem. 63:2338-2345; Szabo et al., 1995, Curr. Opin. Struct. Biol. 5:699-705 and on-line resources provide by BIAcore International AB (Uppsala, Sweden). BIAcore Flexchip can be used to compare and rank interactions in real time, in terms of kinetics, affinity or specificity without the use of labels.
Information from SPR can be used to provide an accurate and quantitative measure of the equilibrium dissociation constant (Kd), and kinetic parameters, including Kon and Koff, for the binding of a binding protein to a target. Such data can be used to compare different biomolecules. For example, selected proteins from an expression library can be compared to identify proteins that have high affinity for the target or that have a slow Koff. This information can also be used to develop structure-activity relationships (SAR). For example, the kinetic and equilibrium binding parameters of matured versions of a parent protein can be compared to the parameters of the parent protein. Variant amino acids at given positions can be identified that correlate with particular binding parameters, e.g., high affinity and slow Koff. This information can be combined with structural modeling (e.g., using homology modeling, energy minimization, or structure determination by x-ray crystallography or NMR). […]
Target sequence in this assay (P14780 94-707): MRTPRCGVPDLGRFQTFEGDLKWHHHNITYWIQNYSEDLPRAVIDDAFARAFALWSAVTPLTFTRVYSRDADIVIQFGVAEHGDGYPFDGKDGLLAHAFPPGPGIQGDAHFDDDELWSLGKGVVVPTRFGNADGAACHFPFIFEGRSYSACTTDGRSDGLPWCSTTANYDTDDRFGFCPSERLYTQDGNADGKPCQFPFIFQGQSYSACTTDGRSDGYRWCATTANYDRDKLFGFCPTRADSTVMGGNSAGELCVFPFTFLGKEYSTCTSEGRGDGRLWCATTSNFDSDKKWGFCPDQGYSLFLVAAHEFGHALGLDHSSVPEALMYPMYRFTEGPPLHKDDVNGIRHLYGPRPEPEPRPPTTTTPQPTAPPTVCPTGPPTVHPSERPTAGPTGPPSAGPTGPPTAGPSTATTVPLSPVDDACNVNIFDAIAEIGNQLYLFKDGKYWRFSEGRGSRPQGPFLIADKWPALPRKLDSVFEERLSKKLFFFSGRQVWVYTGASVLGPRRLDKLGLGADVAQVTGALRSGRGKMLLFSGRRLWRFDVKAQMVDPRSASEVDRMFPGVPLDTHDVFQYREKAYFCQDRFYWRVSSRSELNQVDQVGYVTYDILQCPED

[2] = molecular target: T2, mouse MMP-9 (Mus musculus, UniProt P41245); assay: Inhibition of mouse MMP-9 activity, fluorogenic substrate; type: biochemical
T2 construct: purchased R&D 909-MM
T2 sequence (P41245 108-730): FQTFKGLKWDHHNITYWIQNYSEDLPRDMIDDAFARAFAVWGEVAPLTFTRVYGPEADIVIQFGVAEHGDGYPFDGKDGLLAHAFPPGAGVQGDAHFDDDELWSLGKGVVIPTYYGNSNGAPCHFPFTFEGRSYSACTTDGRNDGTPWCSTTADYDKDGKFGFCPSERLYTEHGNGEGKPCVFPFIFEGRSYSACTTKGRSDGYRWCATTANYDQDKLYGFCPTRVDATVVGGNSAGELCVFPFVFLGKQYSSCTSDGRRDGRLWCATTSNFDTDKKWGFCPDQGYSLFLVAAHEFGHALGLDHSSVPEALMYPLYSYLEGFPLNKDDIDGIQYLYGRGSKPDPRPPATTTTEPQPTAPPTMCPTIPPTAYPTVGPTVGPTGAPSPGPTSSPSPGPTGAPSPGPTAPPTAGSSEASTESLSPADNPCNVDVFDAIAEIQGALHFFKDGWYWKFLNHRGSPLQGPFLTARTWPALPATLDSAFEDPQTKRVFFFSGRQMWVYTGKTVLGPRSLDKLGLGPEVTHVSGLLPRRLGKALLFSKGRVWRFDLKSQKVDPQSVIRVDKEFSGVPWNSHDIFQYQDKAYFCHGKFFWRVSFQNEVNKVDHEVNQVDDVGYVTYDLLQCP
Source text: (§1) The human MMP-1, -2, -3, -7, -8, -9, -10, -12, -13, and -14 were obtained from BIOMOL (Human MMP-9: SE-244, BIOMOL; Human MMP-14: SE-259, BIOMOL; Human MMP-1, -2, -8, -13: MMP MultiPack-1 from BIOMOL; Human MMP-3, -7, -10, -12: MMP MultiPack-2 from BIOMOL). The mouse MMP-2 and -9 were from R&D (Mouse MMP-9: 909-MM, R&D Mouse MMP-2: 924-MP, R&D). The substrate was Mca-Pro-Lys-Pro-Leu-Ala-Leu-Dap(Dnp)-Ala-Arg-NH2 (SEQ ID NO: 951)(M-2225, Bachem) for human MMP-3, and Mca-Lys-Pro-Leu-Gly-Leu-Dap(Dnp)-Ala-Arg-NH2 (SEQ ID NO: 952)(M-2350, Bachem) for all the other enzymes. The substrate concentration in the assay was 10 μM.

[3] = molecular target: T3, human MMP-2 (Homo sapiens, UniProt P08253); assay: MMP selectivity panel, residual enzyme activity; type: biochemical; conditions: FIG. 5
T3 construct: purchased BIOMOL MMP MultiPack-1
T3 sequence (P08253 110-660): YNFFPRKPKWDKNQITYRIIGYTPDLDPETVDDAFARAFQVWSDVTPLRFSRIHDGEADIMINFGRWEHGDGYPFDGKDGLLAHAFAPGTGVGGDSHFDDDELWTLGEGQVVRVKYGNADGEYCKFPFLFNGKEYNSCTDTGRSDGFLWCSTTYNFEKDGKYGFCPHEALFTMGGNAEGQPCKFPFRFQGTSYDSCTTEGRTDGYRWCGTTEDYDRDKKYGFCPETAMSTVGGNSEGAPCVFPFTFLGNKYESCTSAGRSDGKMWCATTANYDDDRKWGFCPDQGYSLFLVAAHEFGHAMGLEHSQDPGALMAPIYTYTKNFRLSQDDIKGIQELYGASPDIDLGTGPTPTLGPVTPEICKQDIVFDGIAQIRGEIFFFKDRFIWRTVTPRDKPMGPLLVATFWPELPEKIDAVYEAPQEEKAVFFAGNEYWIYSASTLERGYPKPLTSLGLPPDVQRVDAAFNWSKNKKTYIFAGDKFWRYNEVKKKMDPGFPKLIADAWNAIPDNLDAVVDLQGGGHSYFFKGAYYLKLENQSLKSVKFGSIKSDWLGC
Source text: as §1

[4] = molecular target: T4, human MMP-12 (Homo sapiens, UniProt P39900); assay: MMP selectivity panel, residual enzyme activity; type: biochemical; conditions: FIG. 5
T4 construct: purchased BIOMOL MMP MultiPack-2
T4 sequence (P39900 106-470): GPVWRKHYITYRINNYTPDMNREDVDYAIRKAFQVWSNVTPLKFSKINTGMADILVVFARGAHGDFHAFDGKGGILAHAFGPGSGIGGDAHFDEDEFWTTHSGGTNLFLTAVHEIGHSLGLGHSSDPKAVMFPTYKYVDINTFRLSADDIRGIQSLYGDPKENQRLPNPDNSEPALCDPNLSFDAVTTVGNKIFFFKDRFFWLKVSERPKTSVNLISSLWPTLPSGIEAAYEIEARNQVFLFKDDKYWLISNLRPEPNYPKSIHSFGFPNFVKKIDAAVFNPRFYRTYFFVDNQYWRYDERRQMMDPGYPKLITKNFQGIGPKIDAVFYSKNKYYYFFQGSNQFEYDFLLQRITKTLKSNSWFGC
Procedure: (§2) After sequencing analysis, the phage display were converted into sFabs and then into IgG1s. Their ability to inhibit MMP-9 and other MMPs (1, 3, 7, 8, 9, 10, 12, 13, 14) was determined by usual means. Compounds were initially screened at 1 μM against MMP-9 and those compounds that inhibited MMP-9>80% were subjected to additional screens against purified recombinant human MMPs. For these additional screens, an IC50 value was determined.
as §1

[5] = molecular target: T5, human MMP-14 (Homo sapiens, UniProt P50281); assay: MMP selectivity panel, residual enzyme activity; type: biochemical; conditions: FIG. 5
T5 construct: purchased BIOMOL SE-259
Procedure: as §2, §1

[6] = molecular target: T6, human MMP-3 (Homo sapiens, UniProt P08254); assay: MMP selectivity panel, residual enzyme activity; type: biochemical; conditions: FIG. 5
T6 construct: purchased BIOMOL MMP MultiPack-2
T6 sequence (P08254 100-477): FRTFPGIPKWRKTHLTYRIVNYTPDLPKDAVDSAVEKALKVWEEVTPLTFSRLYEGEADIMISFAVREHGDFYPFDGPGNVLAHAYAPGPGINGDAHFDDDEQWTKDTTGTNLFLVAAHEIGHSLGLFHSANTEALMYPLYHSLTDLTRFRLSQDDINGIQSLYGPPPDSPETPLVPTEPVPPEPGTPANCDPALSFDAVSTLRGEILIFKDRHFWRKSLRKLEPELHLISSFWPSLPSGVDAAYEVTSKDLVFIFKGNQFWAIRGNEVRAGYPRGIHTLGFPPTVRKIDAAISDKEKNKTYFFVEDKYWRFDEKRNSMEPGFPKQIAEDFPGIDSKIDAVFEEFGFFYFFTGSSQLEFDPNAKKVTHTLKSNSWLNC
Procedure: as §2, §1

[7] = molecular target: T7, human MMP-8 (Homo sapiens, UniProt P22894); assay: MMP selectivity panel, residual enzyme activity; type: biochemical; conditions: FIG. 5
T7 construct: purchased BIOMOL MMP MultiPack-1
T7 sequence (P22894 101-467): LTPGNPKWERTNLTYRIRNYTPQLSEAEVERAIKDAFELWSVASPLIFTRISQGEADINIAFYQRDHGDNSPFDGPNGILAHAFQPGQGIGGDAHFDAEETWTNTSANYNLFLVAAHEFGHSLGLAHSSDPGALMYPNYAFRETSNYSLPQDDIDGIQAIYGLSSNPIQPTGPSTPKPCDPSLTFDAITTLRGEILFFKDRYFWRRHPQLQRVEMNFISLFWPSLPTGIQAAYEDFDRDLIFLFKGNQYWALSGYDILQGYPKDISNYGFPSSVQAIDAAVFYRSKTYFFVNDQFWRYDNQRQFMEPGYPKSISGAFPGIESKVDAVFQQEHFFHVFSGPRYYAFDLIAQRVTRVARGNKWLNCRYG
Procedure: as §2, §1

[8] = molecular target: T1, MMP-9; assay: Inhibition of human MMP-9 activity, fluorogenic peptide substrate (IC50 / residual activity at 1 μM antibody); type: biochemical; design: Human MMP-9 catalytic domain (BIOMOL, SE-244); purchased BIOMOL SE-244
Procedure: MMP-9 binding proteins can be characterized in assays that measure their modulatory activity toward MMP-9 or fragments thereof in vitro or in vivo. For example, MMP-9 can be combined with a substrate such as Mca-Pro-Leu-Ala-Cys(Mob)-Trp-Ala-Arg-Dap(Dnp)-NH2 (SEQ ID NO: 12) under assay conditions permitting cleavage by MMP-9. The assay is performed in the absence of the MMP-9 binding protein, and in the presence of increasing concentrations of the MMP-9 binding protein. The concentration of binding protein at which 50% of the MMP-9 activity (e.g., binding to the substrate) is inhibited is the IC50 value (Inhibitory Concentration 50%) or EC50 (Effective Concentration 50%) value for that binding protein.
as §2
Target sequence in this assay (P14780 107-444 limits assumed): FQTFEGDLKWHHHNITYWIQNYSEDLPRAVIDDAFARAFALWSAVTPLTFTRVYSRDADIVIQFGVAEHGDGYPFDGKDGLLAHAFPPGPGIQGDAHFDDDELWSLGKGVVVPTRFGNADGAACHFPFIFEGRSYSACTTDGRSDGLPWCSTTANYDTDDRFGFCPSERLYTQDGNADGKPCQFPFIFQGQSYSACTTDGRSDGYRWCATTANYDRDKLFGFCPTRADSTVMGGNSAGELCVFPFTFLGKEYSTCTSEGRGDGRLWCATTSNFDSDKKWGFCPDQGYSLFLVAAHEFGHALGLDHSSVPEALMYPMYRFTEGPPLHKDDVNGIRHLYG
The human MMP-1, -2, -3, -7, -8, -9, -10, -12, -13, and -14 were obtained from BIOMOL (Human MMP-9: SE-244, BIOMOL; Human MMP-14: SE-259, BIOMOL; Human MMP-1, -2, -8, -13: MMP MultiPack-1 from BIOMOL; Human MMP-3, -7, -10, -12: MMP MultiPack-2 from BIOMOL). […]

Row | Molecule | Difference from reference ([1]; Flexchip spot signal, Fabs from the R0017 plate) | ka ([1]; Flexchip, Fabs) | kd ([1]; Flexchip, Fabs) | Inhibition of mouse MMP-9 activity (in words) [2] | Inhibition of human MMP-2 (in words) [3] | Inhibition of human MMP-12 (in words) [4] | Inhibition of human MMP-14 (in words) [5] | Inhibition of human MMP-3 (in words) [6] | Inhibition of human MMP-8 (in words) [7] | Inhibition of human MMP-9 activity (in words) ([8]; FIG. 5 / Example 12) | Selectivity for MMP-9 versus other MMPs tested ([8]; compared to the other human and murine MMPs tested)
1 | TIMP-1: endogenous MMP inhibitor, control spot on Flexchip | 845.8099 | No Binding * | No Binding * |  |  |  |  |  |  |  | 
2 | 539A-M0240-B03: Parental isolate (sFab; IgG); h/mMMP-9 antibody inhibitor (antibody, V domains shown) VL: QYELTQPRSVSGSPGQSVTISCTGTSSDVGGYNYVSWYQQHPGKAPKLMIYDVSKRPSGVPDRFSGSKSGNTASLTISGLQAEDEADYYCCSYAGSYTLVFGGGTKLTVL VH: EVQLLESGGGLVQPGGSLRLSCAASGFTFSTYQMVWVRQAPGKGLEWVSVIYPSGGPTVYADSVKGRFTISRDNSKNTLYLQMNSLRAEDTAVYYCARGEDYYDSSGPGAFDIWGQGTMVTVSS |  |  |  | inhibits; also recorded: decrease or inhibit | not | not | not | not | not | inhibits; also recorded: decrease or inhibit | selective inhibitor of MMP-9
